According to PMC5016126:

Target: FLAG-GLUT4 (GLUT4 tagged at the N and C termini with FLAG and His9, tags not cleaved) (UniProt P19357)
Experiment: SDS-PAGE and Western blot; anti-FLAG immunoblot of purified FLAG-GLUT4 before and after TEV protease cleavage (0, 3 and 24 h) in LMNG detergent micelles or in 70% egg PC, 15% POPA, 15% POPE liposomes

## FLAG-GLUT4 (GLUT4 tagged at the N and C termini with FLAG and His9, tags not cleaved) (from UniProt P19357 1-509) (natural protein)
  stoichiometry N: 2
